Results on two molecules are retold here after US20210188980A1 (SHANGHAI EPIMAB BIOTHERAPEUTICS, published 2021).

The target of assay [1] is T1, human PD-1 ECD/Fc fusion protein (human).
T1 construct: also called huPD-1/Fc; HuPD-1 ECD/Fc
The experiment in a line: RBA ELISA on huPD-1/Fc; competitor biotin-huPD-L1/Fc. Here is the method:
(§1) Supernatants displaying PD-1 specific activity were tested for the ability to block PD-1 binding to its ligands PD-L1 and PD-L2 using immobilized human PD-1 ECD/Fc as a target and PD-L1/Fc and PD-L2/Fc fusion proteins, prepared in the same manner as the PD-1 ECD/Fc binding proteins described in Example 1.3 above. To determine the relative potency of the antibody-containing supernatants, their ability to inhibit the binding of a human PD-1 ligand (PD-L1 or PD-L2) to human PD-1 protein was evaluated. ELISA plates were coated with 100 μl of 50 ng/m of huPD-1/Fc (i.e., the extracellular domain of PD-1 grafted onto the N-terminus of a human Fc region, recovered as a homodimer) in PBS and incubated overnight at 4° C. Plates were washed four times in washing buffer (PBS containing 0.05% Tween 20) and blocked for 1 hour at 37° C. with 200 μl per well of blocking buffer (1% BSA in PBS containing 0.05% Tween 20). After blocking buffer was removed, hybridoma supernatant (50 μl) was added to the wells, mixed with either 50 μl biotinylated human PD-L1/Fc ([…] final concentration) in blocking buffer or 50 μl biotinylated human PD-L2/Fc (final concentration 50 μg/ml) in blocking buffer, then incubated at 37° C. for 1 hour. Signal was developed by adding streptavidin-HRP (Sigma, Cat. No. S2468) (100 μl/well of streptavidin-HRP at 1:5000 dilution) and incubating for 40 minutes at 37° C. and washed four times in washing buffer. 100 μl of TMB solution were added per well. Following color development, the reaction was stopped with 1 Normal HCl and absorbance at 450 nm was measured. […]
For orientation: In an ELISA, binding on a coated surface is turned into a signal by an enzyme label.

Assay [2] has as its target T2, cynomolgus PD-1 expressed on CHO-K1 cells (cynomolgus monkey, UniProt B0LAJ3 25-288).
T2 construct: also called CHO-K1/cynoPD-1; CHO-K1-cynoPD-1
In words: FACS, CHO-K1/cynoPD-1 cells. The procedure: (§2) CHO-K1/huPD-1 or CHO-K1/cynoPD-1 cells, described above, were charged at 2×10⁴ cell per well into 96-well assay round-bottomed assay plates (Cat. No. 3799; Corning) and stained with purified anti-PD-1 antibodies. PD-1 antibodies were detected with AlexaFluor® Donkey anti-Mouse IgG (H+L) Highly Cross-Adsorbed Secondary Antibody, (Cat. No. A21202; Invitrogen), and cell fluorescence was monitored using a flow cytometer. The data were processed by GraphPad software, and EC50 values were calculated.
Background: In flow cytometry, cells or beads pass a laser one at a time.

Assay [3] deals with T1, human PD-1 ECD/Fc fusion protein. The experiment in a line: RBA ELISA on huPD-1/Fc; competitor biotin-huPD-L2/Fc. The procedure:
as §1

For assay [4] the target is unchanged. The experiment in a line: ELISA, coated huPD-1/Fc. The procedure:
ELISA plates were incubated overnight at 4° C. with 50 μl of the synthetic human PD-1 ECD/Fc fusion protein targets described above diluted in PBS buffer, pH 7.4, at 1 μg/ml. Plates were washed four times in washing buffer (PBS containing 0.05% Tween 20), and blocked for 1 hour at 37° C. with 200 μl per well blocking buffer (1% BSA in PBS containing 0.05% Tween 20). After blocking buffer was removed, hybridoma supernatant (or later diluted purified mAbs) were added to the wells at 100 μl per well and incubated at 37° C. for 1 hour. The wells were washed four times with washing buffer, and anti-mouse HRP (Sigma) for mouse anti-human PD-1 antibody characterization were diluted 1:5000 and added to the wells at 100 μl per well. The plates were incubated for 1 hour at 37° C. and washed four times in washing buffer. 100 μl of tetramethylbenzidine (TMB) chromogenic solution were added per well. Following color development, the reaction was stopped with 1 Normal HCl and absorbance at 450 nm was measured on a SpectraMax M5e plate reader (Molecular Devices; San Jose, Calif., US).
A binding ELISA was performed in the same way as described in Example 1.3 above. Each purified antibody was 10-fold serially diluted and duplicated. After blocking of the 96-well assay plate with wells containing immobilized PD-1 ECD/Fc fusion protein targets, the purified antibody samples with diluted concentrations were added to wells of assay plates. The HRP-linked anti-mouse IgG antibody (A0168, Sigma) and TMB reagent were used to detect and develop the ELISA signal, which were read on a SpectraMax® M5e plate reader at wavelength of 450 nm. Curves were fitted using GraphPad software, and EC50 were calculated. Similarly, a receptor blocking assay (RBA) was also performed as described in Example 1.5 with titrated, purified antibodies, and top blocking percentages and IC50 values were determined.

Assay [5] concerns the target T3, human PD-1 expressed on cells (human, UniProt Q15116 25-288).
T3 construct: whole, on cells; also called CHO-K1/huPD-1; CHO-K1-hPD-1 cells
The experiment in a line: FACS, CHO-K1/huPD-1 cells. Here is the method: as §2

The target of assay [6] is T1, human PD-1 ECD/Fc fusion protein. The experiment in a line: SPR Biacore, mAb captured, huPD-1/Fc analyte. The procedure: The binding kinetics of purified antibodies were measured by surface plasmon resonance using a Biacore […] instrument (GE Healthcare) using standard procedures. Briefly, goat anti-mouse IgG Fc polyclonal antibody (Genway) was directly immobilized across a biosensor chip, and antibodies samples were injected over reaction matrices at a flow rate of 5 μl/min. The association and dissociation rate constants, kₒₙ(M⁻¹ s⁻¹) and koff (s⁻¹) respectively, were determined with a continuous flow rate of 30 μl/min. Rate constants were derived by making kinetic binding measurements at five different concentrations of human PD-1/Fc protein. The equilibrium dissociation constant KD (M) of the reaction between antibodies and related target proteins was then calculated from the kinetic rate constants using the formula KD=koff/kₒₙ.

Assay [7] addresses T4, recombinant human LAG-3-his protein (Novoprotein) (human, UniProt P18627 23-450).
T4 construct: Bought; also called huLAG-3; not shown: His tag
T4 sequence (looked up): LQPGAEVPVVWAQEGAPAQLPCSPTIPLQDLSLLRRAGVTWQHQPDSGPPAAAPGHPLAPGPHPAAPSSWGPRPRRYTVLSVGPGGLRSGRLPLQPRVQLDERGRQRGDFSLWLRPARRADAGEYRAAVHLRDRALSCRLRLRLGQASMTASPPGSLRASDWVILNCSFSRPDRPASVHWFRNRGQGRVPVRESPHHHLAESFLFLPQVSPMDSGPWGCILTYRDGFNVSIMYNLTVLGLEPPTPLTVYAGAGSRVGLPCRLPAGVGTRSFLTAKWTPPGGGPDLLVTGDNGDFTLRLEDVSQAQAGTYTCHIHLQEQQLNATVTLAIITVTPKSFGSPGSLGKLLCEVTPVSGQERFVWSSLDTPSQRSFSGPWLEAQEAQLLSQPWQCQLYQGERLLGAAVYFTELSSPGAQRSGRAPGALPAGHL
The experiment in a line: BLI Octet, Ab on AHC sensor, huLAG-3-his; test group 2. The procedure:
All 9 humanized antibodies (Table 25) and a chimeric antibody having the parental murine VH and VL domains (mAb747c) were ranked by dissociation rate constant (koff). Briefly, antibodies were characterized for affinities and binding kinetics by Octet RED96 biolayer interferometry (Pall FortéBio LLC). Antibodies were captured by Anti-HIgG Fc Capture (AHC) Biosensors (Pall) at a concentration of 100 nM for 30 seconds. Sensors were then dipped into running buffer (1× pH7.2 PBS, 0.05% Tween 20, 0.1% BSA) for 60 seconds to check baseline. Binding was measured by dipping sensors into a single concentration of recombinant human LAG-3-his protein (Novoprotein). Dissociation was followed by dipping sensors into running buffer for 1200 seconds. The association and dissociation curves were fitted to a 1:1 Langmuir binding model using FortéBio Data Analysis software (Pall).
The seven Fab clones were converted to full IgG proteins. Briefly, the VH and VL genes were produced synthetically and then cloned into vectors containing coding sequences for the human IgG1 and human kappa constant domains, respectively. The heavy chain and cognate light chain plasmids were co-transfected into HEK 293E cells, individually. After approximately six days of post-transfection cell culture, the supernatants were harvested and subjected to Protein A affinity chromatography. The affinity of purified antibodies was ranked by Octet® RED96 biolayer interferometry (see, Example 9.1, supra).
(In general: Biolayer interferometry detects binding as a change in optical thickness at a sensor tip.)

B1: mAb701 (antibody, V domains shown)
VH: EVLLVESGGGLVKPGGSLKLSCAASGFTFSSYMMSWIRQTPERRLEWVASMSGGGRDTYYPDSVKGRFTISRDNAKNTLYLQMSSLRSEDTALYYCARRGTYAMDYWGQGTSVTVSS
VL: DIQMTQSPASQSASLGESVTITCLASQTIGTWLTWYQQKPGKSPQLLIYAATSLADGVPSRFSGSGSGTKFSFKISSLQAEDFVSYYCQQLYSTPWTFGGGTKLEIK
notes: murine hybridoma anti-PD-1 mAb
In the case of B1, in assay [1], the IC50 turned out to be 5.32 nM and the “TOP inhibition (%)” value is 87.1%. Further, in assay [2], the EC50 was 3.8 nM. Moreover, in assay [3], the IC50 was found to be 2.67 nM and the “TOP inhibition (%)” value is 94.1%. This molecule also returned an EC50 in assay [4] of 0.1 nM. This molecule also had an EC50 in assay [5] of 3 nM. In addition, in assay [6], the Kd was 6.81 nM, the koff was found to be 0.000512 s⁻¹ and the kon came to 75200 M⁻¹ s⁻¹.

B2: D1-70-IgG (antibody, V domains shown)
VH: EVQLVQSGAEVKKPGASVKVSCKASGFNIKDDYMHWVRQAPGQGLEWIGWIVPRNGNTMYASKFQGRVTITADTSINTAYMELSRLRSDDTAVYYCTVYGDYWGQGTTVTVSS
VL: DIQMTQSPSSLSASVGDRVTINCRASQEISGYLSWLQQKPEGTIKRLIYAASTLDLGVPSRFSGSRSGSDYTLTISSLQPEDFATYYCLQYASYPLTFGGGTKVEIK
notes: human IgG1/kappa constant domains
With B2, in assay [7], the off-rate (koff) came out at 0.0026 s⁻¹ and the “off-rate ratio to that of mAb747c” value amounted to 160%.

In general, IC50 refers to the midpoint of a concentration-inhibition curve. Read a high IC50 as weaker potency in that assay. As usually defined, the EC50 is the concentration needed to bring the measured effect to its halfway point. As a reminder, the Kd is the free concentration of one partner at which half of the binding sites on the other are occupied at equilibrium, for simple one-to-one binding. High values mean weaker binding, low ones tighter binding. As a reminder, the koff is the rate constant with which the complex falls apart. In general, kon refers to a measure of how fast the partners come together. Read a high kon as fast association.
